Data set [1] addresses r6,Glm-Tei-pseudoaglycone (compound 12). The data set is described as follows: ITC (isothermal titration calorimetry), exothermic injections, sigmoidal isotherm over molar ratio about 0.45 to 1.85. In general terms: Isothermal titration calorimetry measures the heat released or taken up as one component is titrated into another.
Data set [2] has the same target. The data set is described as follows: ITC.
Data set [3] concerns the target r4,Glm-Tei-pseudoaglycone (compound 6).
For data set [4], the target named is r6,Glm-Tei-pseudoaglycone (compound 12).

The source of these data is patent US20200291071A1.

In general, Kd refers to the concentration at which binding is half-saturated. Take “Dbv27 (methyltransferase encoded by gene dbv27) (enzyme)”: the Kd was found to be 5.1 µM in data set [1] and 5 µM in data set [2].

B1: Orf11*S (acyltransferase, single mutant W163A of Orf11*) (protein)
chain: MGSSHHHHHHSSGLVPRGSHMMMDPETVRIALGLEERTAAWLTELDELGPPAEPVRLPRGEEARDLLRRLEVPELDAEEIVAAAPDPDRDPALWWLLERTHHAIVRHMGDHRAKPRGGPPLPYEGGAAARYFHVYVFLATVPAVRRFHAERGIPDEVGWETLTQLGELVAIHRRKYGQGGMNMQAWTTYHLRGILYRLGRLQFSLATGKDGTPHLGLHVPEWGGPLLPKAYDESLHRARPFFDRHFPEHGARVAWGSSWMLDPQLEEYLTEDSNIIQLARFWTLTDSAPEPGNADGDSSILEFVFRYNGQPLDELPQRSSLERAVIAHLKAGRHWHMRTGFVKLP
As to B1, the “Km (acyl-transfer kinetics, HPLC)” value in data set [3] was “Km=0.07 mM”; in data set [4], “Km=0.3±0.03 mM”.
